Data on seven molecules can be found in patent publication US20250136686A1 (GUANGDONG KEGUANDA PHARMACEUTICAL TECHNOLOGY, published 2025).

For the assay, the target named is T1, CD101 (human, UniProt Q93033 21-1021).
T1 construct: whole, on cells; The Jurkat line was made with another lentivirus (PSE5799, human CD101); also called human CD101; 293F-CD101
T1 sequence (looked up): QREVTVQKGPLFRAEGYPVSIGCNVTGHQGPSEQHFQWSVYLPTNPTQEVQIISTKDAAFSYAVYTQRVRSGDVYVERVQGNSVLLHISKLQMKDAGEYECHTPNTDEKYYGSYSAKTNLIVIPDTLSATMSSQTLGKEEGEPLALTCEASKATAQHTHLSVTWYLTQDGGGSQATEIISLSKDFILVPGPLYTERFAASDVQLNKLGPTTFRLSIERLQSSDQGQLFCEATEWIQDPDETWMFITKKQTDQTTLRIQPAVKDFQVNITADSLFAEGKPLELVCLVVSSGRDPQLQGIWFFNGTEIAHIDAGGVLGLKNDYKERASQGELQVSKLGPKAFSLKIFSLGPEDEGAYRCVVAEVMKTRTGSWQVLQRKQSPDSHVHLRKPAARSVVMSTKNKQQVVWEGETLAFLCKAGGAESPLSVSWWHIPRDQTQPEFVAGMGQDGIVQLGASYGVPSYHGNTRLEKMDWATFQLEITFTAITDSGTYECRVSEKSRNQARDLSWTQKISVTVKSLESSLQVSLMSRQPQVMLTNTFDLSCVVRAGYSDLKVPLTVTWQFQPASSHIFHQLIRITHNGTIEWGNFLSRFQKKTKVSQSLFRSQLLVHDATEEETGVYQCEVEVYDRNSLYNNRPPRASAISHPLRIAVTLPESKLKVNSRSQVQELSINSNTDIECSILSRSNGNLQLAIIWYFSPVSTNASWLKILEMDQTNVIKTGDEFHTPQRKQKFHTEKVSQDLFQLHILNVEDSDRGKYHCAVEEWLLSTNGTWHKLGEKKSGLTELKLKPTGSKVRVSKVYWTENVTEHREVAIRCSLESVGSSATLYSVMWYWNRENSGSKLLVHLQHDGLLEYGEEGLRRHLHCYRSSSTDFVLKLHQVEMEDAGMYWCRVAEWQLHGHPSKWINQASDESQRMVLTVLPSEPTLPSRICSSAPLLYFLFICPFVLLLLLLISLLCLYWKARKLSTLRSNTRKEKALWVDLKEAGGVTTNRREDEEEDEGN
The assay can be described thus: FACS, culture supernatant on 293F-CD101 cells. As for the experimental part: Expression vectors for humanized antibodies carrying a designed heavy-chain or light-chain sequence were transiently transfected into 293F cells in pairs according to a standard protocol. Specifically, PBS was added at 2 mL/well to a 6-well plate, then 2 μg of a pcDNA3.4-IgG1 expression vector and 2 μg of a pcDNA3.4-IgKc expression vector were added, and thorough mixing was conducted by pipetting up and down. 12 μL of a LVTransm transfection reagent was added, then thorough mixing was immediately conducted by pipetting up and down, and the plate was allowed to stand at room temperature for 10 min. A DNA/LVTransm complex was added to 3 mL of 293F cells, and gentle shaking was conducted for thorough mixing. The cells were further cultured for 3 d in a 37° C. and 5% CO₂ incubator, and a culture supernatant was collected through centrifugation and tested by FACS.
FACS was conducted according to a standard protocol. […] Cells were washed with PBS 3 times. 100 μL of a secondary antibody (PE-anti-human IgG, which was diluted 1:200) was added, thorough mixing was conducted, and incubation was conducted for 45 min at room temperature in the dark. Cells were washed with PBS 3 times and then resuspended with 500 μL of PBS. A fluorescence intensity was read by a multimode microplate reader for FACS analysis. […] In the follow-up experiments, the four combinations of VH1-VL1, VH1-VL2, VH3-VL1, and VH3-VL2 (hu.CA1 to hu.CA4) were taken as examples for antibody purification and affinity testing.
For orientation: In flow cytometry, cells or beads pass a laser one at a time.

B1: humanized antibody VH2-VL3 (antibody, V domains shown)
VH: EVQLVQSGAEVKKPGASVKVSCKASGFTLTEYTIHWVRQAPGQGLEWIGWFYPGSGGIKYNEKFQDRVTLTADESASTVYMELSSLRSEDTAVYFCARHAFYRNYEYFDVWGTGTMVTVSS
VL: DIVMTQAPFSSPVTLGTPASISCRSSKSLLHSNGITYLYWYQQRPGQSPRLLIYQMSNLASGVPDRFSSSGSGTDFTLKISRVEAEDVGVYYCAQNLELPLTFGAGTKLEIK
notes: IgG1, kappa; tested as culture supernatant; also called VH-HM2 / VL-HM3
For B1, the binding result is “binds”.

B2: humanized antibody VH4-VL1 (antibody, V domains shown)
VH: EVQLVQSGAEVKKPGASVKVSCKASGFTLTEYTIHWVKQAPGQGLEWIGWFYPGSGGIKYNEKFQDRVTLTADESSSTVYMELSRLRSDDTAVYFCARHAFYRNYEYFDVWGTGTMVTVSS
VL: DIVMTQAPFSLPVTPGTPASISCRSSKSLLHSNGITYLYWYLQKPGQSPQLLIYQMSNLASGVPDRFSSSGSGTDFTLKISRVEAEDVGVYYCAQNLELPLTFGAGTKLEIK
notes: IgG1, kappa; tested as culture supernatant; also called VH-HM4 / VL-HM1
Turning to B2, the binding result is on record as “binds”.

B3: humanized antibody VH1-VL3 (antibody, V domains shown)
VH: EVQLVQSGAEVKKPGASVKVSCKASGFTLTEYTIHWVRQAPGQGLEWIGWFYPGSGGIKYNEKFQDRVTLTADESISTVYMELSRLRSDDTAVYFCARHAFYRNYEYFDVWGTGTMVTVSS
VL: DIVMTQAPFSSPVTLGTPASISCRSSKSLLHSNGITYLYWYQQRPGQSPRLLIYQMSNLASGVPDRFSSSGSGTDFTLKISRVEAEDVGVYYCAQNLELPLTFGAGTKLEIK
notes: IgG1, kappa; tested as culture supernatant; also called VH-HM1 / VL-HM3
Turning to B3, the binding result is on record as “binds”.

B4: humanized antibody VH4-VL3 (antibody, V domains shown)
VH: EVQLVQSGAEVKKPGASVKVSCKASGFTLTEYTIHWVKQAPGQGLEWIGWFYPGSGGIKYNEKFQDRVTLTADESSSTVYMELSRLRSDDTAVYFCARHAFYRNYEYFDVWGTGTMVTVSS
VL: DIVMTQAPFSSPVTLGTPASISCRSSKSLLHSNGITYLYWYQQRPGQSPRLLIYQMSNLASGVPDRFSSSGSGTDFTLKISRVEAEDVGVYYCAQNLELPLTFGAGTKLEIK
notes: IgG1, kappa; tested as culture supernatant; also called VH-HM4 / VL-HM3
With B4, the binding result is “binds”.

B5: humanized antibody VH2-VL1 (antibody, V domains shown)
VH: EVQLVQSGAEVKKPGASVKVSCKASGFTLTEYTIHWVRQAPGQGLEWIGWFYPGSGGIKYNEKFQDRVTLTADESASTVYMELSSLRSEDTAVYFCARHAFYRNYEYFDVWGTGTMVTVSS
VL: DIVMTQAPFSLPVTPGTPASISCRSSKSLLHSNGITYLYWYLQKPGQSPQLLIYQMSNLASGVPDRFSSSGSGTDFTLKISRVEAEDVGVYYCAQNLELPLTFGAGTKLEIK
notes: IgG1, kappa; tested as culture supernatant; also called VH-HM2 / VL-HM1
In the case of B5, the binding result is “binds”.

B6: humanized antibody VH2-VL2 (antibody, V domains shown)
VH: EVQLVQSGAEVKKPGASVKVSCKASGFTLTEYTIHWVRQAPGQGLEWIGWFYPGSGGIKYNEKFQDRVTLTADESASTVYMELSSLRSEDTAVYFCARHAFYRNYEYFDVWGTGTMVTVSS
VL: DIVMTQAPLSLPVTPGTPASISCRSSKSLLHSNGITYLYWYLQKPGQSPQLLIYQMSNLASGVPDRFSSSGSGTDFTLKISRVEAEDVGVYYCAQNLELPLTFGAGTKLEIK
notes: IgG1, kappa; tested as culture supernatant; also called VH-HM2 / VL-HM2
Consider B6, for which the binding result was “binds”.

B7: humanized antibody VH4-VL2 (antibody, V domains shown)
VH: EVQLVQSGAEVKKPGASVKVSCKASGFTLTEYTIHWVKQAPGQGLEWIGWFYPGSGGIKYNEKFQDRVTLTADESSSTVYMELSRLRSDDTAVYFCARHAFYRNYEYFDVWGTGTMVTVSS
VL: DIVMTQAPLSLPVTPGTPASISCRSSKSLLHSNGITYLYWYLQKPGQSPQLLIYQMSNLASGVPDRFSSSGSGTDFTLKISRVEAEDVGVYYCAQNLELPLTFGAGTKLEIK
notes: IgG1, kappa; tested as culture supernatant; also called VH-HM4 / VL-HM2
For B7, the binding result is given as “binds”.
